Laboratory results from the RNAGym collection of RNA variant scans (doi:10.7554/elife.90254).

B1: LINE1-mini (parent)
chain: GGCAGAGCUCAACACAGCGUGGCAAAGUGGCUGUGGCUAGACUGCC

Variants of: B1
Test: self-cleavage, relative activity (ratio to wild type); higher = more cleavage; in vitro, sequencing; the parent is a self-cleaving ribozyme

Variant	self-cleavage
GGCAGUGCUCAACACAGCGUGGCAAAGUGGCUGGGGCUAGACUGCC [A6U U34G]	0.28
GGCAGUGCUCAACACAGCGUGGCAAAGUGGCUGAGGCUAGACUGCC [A6U U34A]	0.06
GGCAGUGCUCAACACAGCGUGGCAAAGUGGCUGCGGCUAGACUGCC [A6U U34C]	0.12
GGCAGUGCUCAACACAGCGUGGCAAAGUGGCUGUGGCUAGACUACC [A6U G44A]	0.64
GGCAGUGCUCAACACAGCGUGGCAAAGUGGCUGUGGCUAGACUCCC [A6U G44C]	0.75
GGCAGUGCUCAACACAGCGUGGCAAAGUGGCUGUGGCUAGACUUCC [A6U G44U]	0.54
GGCAGAACUCAACACAGCGUGGCAAAGUAGCUGUGGCUAGACUGCC [G7A G29A]	0.09
GGCAGAACUCAACACAGCGUGGCAAAGUUGCUGUGGCUAGACUGCC [G7A G29U]	0.2
GGCAGAACUCAACACAGCGUGGCAAAGUCGCUGUGGCUAGACUGCC [G7A G29C]	0.07
GGCAGAACUCAACACAGCGUGGCAAAGUGGUUGUGGCUAGACUGCC [G7A C31U]	0.08
GGCAGAACUCAACACAGCGUGGCAAAGUGGGUGUGGCUAGACUGCC [G7A C31G]	0.08
GGCAGAACUCAACACAGCGUGGCAAAGUGGAUGUGGCUAGACUGCC [G7A C31A]	0.21
GGCAGAACUCAACACAGCGUGUCAAAGUGGCUGUGGCUAGACUGCC [G7A G22U]	0.14
GGCAGAACUCAACACAGCGUGCCAAAGUGGCUGUGGCUAGACUGCC [G7A G22C]	0.13
GGCAGAACUCAACACAGCGUGACAAAGUGGCUGUGGCUAGACUGCC [G7A G22A]	0.14
GGCAGAACUCAACACAGCGUGGCAAAGUGGCUGUGGAUAGACUGCC [G7A C37A]	0.18
GGCAGAACUCAACACAGCGUGGCAAAGUGGCUGUGGUUAGACUGCC [G7A C37U]	0.11
GGCAGAACUCAACACAGCGUGGCAAAGUGGCUGUGGGUAGACUGCC [G7A C37G]	0.05
GGCAGAACUCAACACAGCGUGGCAAACUGGCUGUGGCUAGACUGCC [G7A G27C]	0.18
GGCAGAACUCAACACAGCGUGGCAAAAUGGCUGUGGCUAGACUGCC [G7A G27A]	0.06
GGCAGAACUCAACACAGCGUGGCAAAUUGGCUGUGGCUAGACUGCC [G7A G27U]	0.16
GGCAGUGCUCAACACAGCGUGGCAAAGUGGCUGUGGCUAGACGGCC [A6U U43G]	0.08
GGCAGUGCUCAACACAGCGUGGCAAAGUGGCUGUGGCUAGACCGCC [A6U U43C]	0.51

Variant	self-cleavage
GGCAGUGCUCAACACAGCGUGGCAAAGUGGCUGUGGCUAGACAGCC [A6U U43A]	0.13
GGCAGAACUCAACACCGCGUGGCAAAGUGGCUGUGGCUAGACUGCC [G7A A16C]	0.13
GGCAGAACUCAACACUGCGUGGCAAAGUGGCUGUGGCUAGACUGCC [G7A A16U]	0.32
GGCAGAACUCAACACGGCGUGGCAAAGUGGCUGUGGCUAGACUGCC [G7A A16G]	0.28
GGCAGAACUUAACACAGCGUGGCAAAGUGGCUGUGGCUAGACUGCC [G7A C10U]	0.04
GGCAGAACUGAACACAGCGUGGCAAAGUGGCUGUGGCUAGACUGCC [G7A C10G]	0.02
GGCAGAACUAAACACAGCGUGGCAAAGUGGCUGUGGCUAGACUGCC [G7A C10A]	0.05
GGCAGAACUCAACACAACGUGGCAAAGUGGCUGUGGCUAGACUGCC [G7A G17A]	0.16
GGCAGAACUCAACACAUCGUGGCAAAGUGGCUGUGGCUAGACUGCC [G7A G17U]	0.12
GGCAGAACUCAACACACCGUGGCAAAGUGGCUGUGGCUAGACUGCC [G7A G17C]	0.18
GGCAGAACUCAACACAGCGUGGCAAAGUGGCUGUGGCUUGACUGCC [G7A A39U]	0.25
GGCAGAACUCAACACAGCGUGGCAAAGUGGCUGUGGCUGGACUGCC [G7A A39G]	0.07
GGCAGAACUCAACACAGCGUGGCAAAGUGGCUGUGGCUCGACUGCC [G7A A39C]	0.08
GGCAGAACUCAACACAGCGUGGGAAAGUGGCUGUGGCUAGACUGCC [G7A C23G]	0.21
GGCAGAACUCAACACAGCGUGGUAAAGUGGCUGUGGCUAGACUGCC [G7A C23U]	0.11
GGCAGAACUCAACACAGCGUGGAAAAGUGGCUGUGGCUAGACUGCC [G7A C23A]	0.15
GGCAGAACUCAACACAGCGUGGCAGAGUGGCUGUGGCUAGACUGCC [G7A A25G]	0.12
GGCAGAACUCAACACAGCGUGGCAUAGUGGCUGUGGCUAGACUGCC [G7A A25U]	0.25
GGCAGAACUCAACACAGCGUGGCACAGUGGCUGUGGCUAGACUGCC [G7A A25C]	0.14
GGCAGUGCUCAACACAGCGUGGCAAAGAGGCUGUGGCUAGACUGCC [A6U U28A]	0.4
GGCAGUGCUCAACACAGCGUGGCAAAGCGGCUGUGGCUAGACUGCC [A6U U28C]	0.74
GGCAGUGCUCAACACAGCGUGGCAAAGGGGCUGUGGCUAGACUGCC [A6U U28G]	0.6
GGCAGAACUCAACACAGCGUGGCAAAGUGGCUGUGGCUAGACUGCA [G7A C46A]	0.23

Variant	self-cleavage
GGCAGAACUCAACACAGCGUGGCAAAGUGGCUGUGGCUAGACUGCU [G7A C46U]	0.32
GGCAGAACUCAACACAGCGUGGCAAAGUGGCUGUGGCUAGACUGCG [G7A C46G]	0.36
GGCAGUGCGCAACACAGCGUGGCAAAGUGGCUGUGGCUAGACUGCC [A6U U9G]	0.15
GGCAGUGCCCAACACAGCGUGGCAAAGUGGCUGUGGCUAGACUGCC [A6U U9C]	0.08
GGCAGUGCACAACACAGCGUGGCAAAGUGGCUGUGGCUAGACUGCC [A6U U9A]	0.17
GGCAGUGCUCAACACAGCGUGGCAAAGUGGCCGUGGCUAGACUGCC [A6U U32C]	0.1
GGCAGUGCUCAACACAGCGUGGCAAAGUGGCGGUGGCUAGACUGCC [A6U U32G]	0.13
GGCAGUGCUCAACACAGCGUGGCAAAGUGGCAGUGGCUAGACUGCC [A6U U32A]	0.15
GGCAGUGCUCAACACAGCGUGGCAAAGUGGCUGUGGCGAGACUGCC [A6U U38G]	0.04
GGCAGUGCUCAACACAGCGUGGCAAAGUGGCUGUGGCAAGACUGCC [A6U U38A]	0.23
GGCAGUGCUCAACACAGCGUGGCAAAGUGGCUGUGGCCAGACUGCC [A6U U38C]	0.27
GGCAGAACUCAACACAGCGUCGCAAAGUGGCUGUGGCUAGACUGCC [G7A G21C]	0.12
GGCAGAACUCAACACAGCGUUGCAAAGUGGCUGUGGCUAGACUGCC [G7A G21U]	0.24
GGCAGAACUCAACACAGCGUAGCAAAGUGGCUGUGGCUAGACUGCC [G7A G21A]	0.34
GGCAGAAUUCAACACAGCGUGGCAAAGUGGCUGUGGCUAGACUGCC [G7A C8U]	0.43
GGCAGAAAUCAACACAGCGUGGCAAAGUGGCUGUGGCUAGACUGCC [G7A C8A]	0.35
GGCAGAAGUCAACACAGCGUGGCAAAGUGGCUGUGGCUAGACUGCC [G7A C8G]	0.17
GGCAGAACUCAACACAGCGUGGCAAAGUGGCUGUGGCUAGACUGAC [G7A C45A]	0.19
GGCAGAACUCAACACAGCGUGGCAAAGUGGCUGUGGCUAGACUGUC [G7A C45U]	0.21
GGCAGAACUCAACACAGCGUGGCAAAGUGGCUGUGGCUAGACUGGC [G7A C45G]	0.29
GGCAGAACUCAACACAGCGUGGCAAAGUGGCUGUGGCUAGACUGCC [G7A]	0.2
GGCAGAACUCAACACAGCGUGGCAAAGUGGCUGUAGCUAGACUGCC [G7A G35A]	0.3
GGCAGAACUCAACACAGCGUGGCAAAGUGGCUGUUGCUAGACUGCC [G7A G35U]	0.11

Variant	self-cleavage
GGCAGAACUCAACACAGCGUGGCAAAGUGGCUGUCGCUAGACUGCC [G7A G35C]	0.13
GGCAGAACUCAACACAGCGUGGCAAAGUGGCUGUGGCUAGAAUGCC [G7A C42A]	0.18
GGCAGAACUCAACACAGCGUGGCAAAGUGGCUGUGGCUAGAUUGCC [G7A C42U]	0.16
GGCAGAACUCAACACAGCGUGGCAAAGUGGCUGUGGCUAGAGUGCC [G7A C42G]	0.05
GGCAGAACUCAAUACAGCGUGGCAAAGUGGCUGUGGCUAGACUGCC [G7A C13U]	0.29
GGCAGAACUCAAAACAGCGUGGCAAAGUGGCUGUGGCUAGACUGCC [G7A C13A]	0.45
GGCAGAACUCAAGACAGCGUGGCAAAGUGGCUGUGGCUAGACUGCC [G7A C13G]	0.26
GGCAGAACUCAACACAGCGUGGCAACGUGGCUGUGGCUAGACUGCC [G7A A26C]	0.18
GGCAGAACUCAACACAGCGUGGCAAGGUGGCUGUGGCUAGACUGCC [G7A A26G]	0.24
GGCAGAACUCAACACAGCGUGGCAAUGUGGCUGUGGCUAGACUGCC [G7A A26U]	0.21
GGCAGAACUCAACACAGCGUGGCAAAGUGGCUGUGGCUAGUCUGCC [G7A A41U]	0.18
GGCAGAACUCAACACAGCGUGGCAAAGUGGCUGUGGCUAGGCUGCC [G7A A41G]	0.12
GGCAGAACUCAACACAGCGUGGCAAAGUGGCUGUGGCUAGCCUGCC [G7A A41C]	0.21
GGCAGAACUCAACUCAGCGUGGCAAAGUGGCUGUGGCUAGACUGCC [G7A A14U]	0.16
GGCAGAACUCAACGCAGCGUGGCAAAGUGGCUGUGGCUAGACUGCC [G7A A14G]	0.24
GGCAGAACUCAACCCAGCGUGGCAAAGUGGCUGUGGCUAGACUGCC [G7A A14C]	0.5
GGCAGAACUCUACACAGCGUGGCAAAGUGGCUGUGGCUAGACUGCC [G7A A11U]	0.03
GGCAGAACUCCACACAGCGUGGCAAAGUGGCUGUGGCUAGACUGCC [G7A A11C]	0.03
GGCAGAACUCGACACAGCGUGGCAAAGUGGCUGUGGCUAGACUGCC [G7A A11G]	0.02
GGCAGAACUCAACACAGCCUGGCAAAGUGGCUGUGGCUAGACUGCC [G7A G19C]	0.09
GGCAGAACUCAACACAGCUUGGCAAAGUGGCUGUGGCUAGACUGCC [G7A G19U]	0.11
GGCAGAACUCAACACAGCAUGGCAAAGUGGCUGUGGCUAGACUGCC [G7A G19A]	0.26
GGCAGAACUCAACAUAGCGUGGCAAAGUGGCUGUGGCUAGACUGCC [G7A C15U]	0.24

Variant	self-cleavage
GGCAGAACUCAACAGAGCGUGGCAAAGUGGCUGUGGCUAGACUGCC [G7A C15G]	0.12
GGCAGAACUCAACAAAGCGUGGCAAAGUGGCUGUGGCUAGACUGCC [G7A C15A]	0.19
GGCAGAACUCAACACAGUGUGGCAAAGUGGCUGUGGCUAGACUGCC [G7A C18U]	0.12
GGCAGAACUCAACACAGAGUGGCAAAGUGGCUGUGGCUAGACUGCC [G7A C18A]	0.07
GGCAGAACUCAACACAGGGUGGCAAAGUGGCUGUGGCUAGACUGCC [G7A C18G]	0.19
GGCAGAACUCAUCACAGCGUGGCAAAGUGGCUGUGGCUAGACUGCC [G7A A12U]	0.15
GGCAGAACUCACCACAGCGUGGCAAAGUGGCUGUGGCUAGACUGCC [G7A A12C]	0.02
GGCAGAACUCAGCACAGCGUGGCAAAGUGGCUGUGGCUAGACUGCC [G7A A12G]	0.05
GGCAGAACUCAACACAGCGUGGCAAAGUGGCUCUGGCUAGACUGCC [G7A G33C]	0.12
GGCAGAACUCAACACAGCGUGGCAAAGUGGCUAUGGCUAGACUGCC [G7A G33A]	0.29
GGCAGAACUCAACACAGCGUGGCAAAGUGGCUUUGGCUAGACUGCC [G7A G33U]	0.18
GGCAGAACUCAACACAGCGUGGCUAAGUGGCUGUGGCUAGACUGCC [G7A A24U]	0.16
GGCAGAACUCAACACAGCGUGGCCAAGUGGCUGUGGCUAGACUGCC [G7A A24C]	0.12
GGCAGAACUCAACACAGCGUGGCGAAGUGGCUGUGGCUAGACUGCC [G7A A24G]	0.16
GGCAGUGCUCAACACAGCGCGGCAAAGUGGCUGUGGCUAGACUGCC [A6U U20C]	0.3
GGCAGUGCUCAACACAGCGAGGCAAAGUGGCUGUGGCUAGACUGCC [A6U U20A]	0.37
GGCAGUGCUCAACACAGCGGGGCAAAGUGGCUGUGGCUAGACUGCC [A6U U20G]	0.55
GGCAGAACUCAACACAGCGUGGCAAAGUGACUGUGGCUAGACUGCC [G7A G30A]	0.24
GGCAGAACUCAACACAGCGUGGCAAAGUGUCUGUGGCUAGACUGCC [G7A G30U]	0.24
GGCAGAACUCAACACAGCGUGGCAAAGUGCCUGUGGCUAGACUGCC [G7A G30C]	0.42
